The results in this text go back to publication doi:10.1101/2024.02.23.581811 (bioRxiv, 2024).

Numbering of substitutions follows the chain as printed.

This experiment concerns the target β2-adrenergic receptor (Homo sapiens (Human)., UniProt P07550). Briefly: linear dichroism.

B1: NB80-eGFP-HRas (VHH)
VHH: QVQLQESGGGLVQAGGSLRLSCAASGSIFSINTMGWYRQAPGKQRELVAAIHSGGSTNYANSVKGRFTISRDNAANTVYLQMNSLKPEDTAVYYCNVKDYGAVLYEYDYWGQGTQVTVSS
As for B1, the binding result was “binds”.

B2: NB80Lite-eGFP-HRas (VHH)
VHH: B1 VHH with H52S, S56G, T57S, N58A
Turning to B2, the binding result is “binds”.
